{"source": "patent US12458681B2", "about": "“Compositions and method for treating acute radiation syndrome” (Prince Biotech, LLC, priority 2014, dated 2025)", "key": {"[1]": {"test_system": "NOD mice", "details": "adoptive transfer and spontaneous disease, long term; cited from earlier work"}, "[2]": {"target": "Insulin-degrading enzyme (IDE) (Homo sapiens, UniProt P14735)", "assay": "Differential Shift Assay of PIF mutants", "format": "binding", "source_text": "Thus 2 putative mutants were conceived, mutant-1: P6→E6, and mutant-3:[…]; c. Table represent the mutants that were considered, of them 2 were synthesized based on their putative availability as options for ligand-receptor disruptors."}}, "data": [{"sequence": "GRVDPSNKSMPKDIA [PTFscr]", "values": [{"measurement": "diabetes development", "setting": "[1]", "value": "no effect"}]}, {"sequence": "MVRGKPGSANKPSDD [mut3]", "values": [{"measurement": "binding to IDE", "setting": "[2]", "value": "bind"}]}, {"sequence": "MVRIKEGSANKPSDD [mut1]", "values": [{"measurement": "binding to IDE", "setting": "[2]", "value": "bind"}]}]}
